Reference: patent US20260209387A1, “SINGLE-DOMAIN ANTIBODY FOR INHIBITION OF NEUTROPHIL ELASTASE ACTIVITY” (UNIVERSITE DE LIEGE, priority 2023, published 2026)
Values belong to the molecule of their own block, whether it stands above or below them.

How the values were obtained:
hNE = biological target: T1, hNE (Homo sapiens, UniProt P08246); assay: hNE inhibitory capacity after physical stress; type: biochemical; details: hNE: Nb molar ratio 1:1, compared to unexposed ISVD
T1 construct: purchased Elastin Products Company (EPC)
T1 sequence (P08246 30-247): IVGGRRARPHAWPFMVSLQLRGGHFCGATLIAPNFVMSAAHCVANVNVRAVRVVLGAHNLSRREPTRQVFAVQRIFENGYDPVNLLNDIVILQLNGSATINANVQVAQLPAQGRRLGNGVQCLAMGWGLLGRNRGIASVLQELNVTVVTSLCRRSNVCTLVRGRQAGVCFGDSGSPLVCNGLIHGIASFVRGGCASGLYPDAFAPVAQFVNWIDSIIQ
Experimental: 2.2.1 Evaluation of the proteolytic activity inhibition on purified hNE. hNE activity was assessed by following the degradation of a chromogenic hNE substrate, N-succinyl-alanine-alanine-proline-valine-p-nitroanilide (suc-Ala-Ala-Pro-Val-pNA, Elastin products, Owensville, Missouri, USA), measuring the absorbance at 410 nm with a spectrophotometer (Spectramax ID5, Molecular Devices, San Jose, USA). The substrate was diluted to a concentration of 1.5 mM in a tris buffer (0.1M tris, 0.5M NaCl, 0.01% NaN3, pH 7.5) and 200 μl of this solution were added to the wells of a 96-well plate and heated at 37° C. Purified hNE (Elastin products) was reconstituted on ice in a 0.05M Sodium acetate (NaOAc), 0.1M NaCl buffer at pH5 to a concentration of 0.1 mg/ml. 10 μl of this hNE solution were added per well and the substrate degradation was followed during 20 min to verify the hNE activity in the wells. ISVDswere then added to the wells at the desired hNE: ISVD ratio, and the substrate degradation was then followed during 50 min. Slopes were calculated from the regression line drawn from the absorbance measurements and were expressed as a percentage of the hNE activity without ISVDs. […]

[1] = Physical stress (nebulization, agitation, freeze/thaw): concentration by A280 nm before/after centrifugation; type: physicochemical; details: for Initial concentration percentage after centrifugation: 10 000 g 10 min
Experimental: A 0.25 mg/ml solution of NbE201, NbE201-PEG10 or NbE201-PEG40 was prepared and divided in order to apply the following conditions: control, 1 or 4 h of agitation with a magnetic bar, nebulization, 5 or 10 freeze/thaw cycles.
2.3.1 Stability towards agitation. 100 μl of a 0.25 mg/ml ISVDs solution were agitated in a 1 ml glass vial with a 2×5 mm magnetic bar (VWR, Radnor, USA) at 200 rpm during 1 or 4 hours.
2.3.2 Stability towards Nebulization. 300 μl of a 0.25 mg/ml ISVDs solution were nebulized with a MeSH nebulizer (InnoSpire Go, Phillips, Amsterdam, The Netherlands).
2.3.3 Stability towards freezing/thawing. 100 μl of a 0.25 mg/ml ISVDs solution underwent 5 or 10 freeze/thaw (F/T) cycles. Freezing was performed in a −20° C. freezer and thawing was performed at RT.
2.3.4 Concentration measurements. Concentrations and UV spectra were measured by spectrophotometry (NanoDrop 2000/2000c spectrophotometer, ThermoFisher). Concentrations were determined based on the absorbance at 280 nm. NbE201 and NbE201-Cter mass extinction coefficients applied to the measurements were 1.888 and 1.716 (mg/mL)^−1 cm^−1 respectively. Regarding the ISVDs exposed to physical stresses, the concentration was read before and after centrifugation at 10 000 g at 4° C. for 10 min.

[2] = biological target: T2, proteolytic (elastase) activity of cystic fibrosis patient sputa (Homo sapiens, UniProt P08246); assay: Sputum proteolytic activity inhibition, cystic fibrosis sputa; type: biochemical
T2 construct: Sputa from patients with cystic fibrosis, COPD or ciliary diskenisia above 18 years old were collected; from tissue; host or cells: expectorated sputum of patients with cystic fibrosis, COPD or ciliary dyskinesia
T2 sequence (P08246 30-267): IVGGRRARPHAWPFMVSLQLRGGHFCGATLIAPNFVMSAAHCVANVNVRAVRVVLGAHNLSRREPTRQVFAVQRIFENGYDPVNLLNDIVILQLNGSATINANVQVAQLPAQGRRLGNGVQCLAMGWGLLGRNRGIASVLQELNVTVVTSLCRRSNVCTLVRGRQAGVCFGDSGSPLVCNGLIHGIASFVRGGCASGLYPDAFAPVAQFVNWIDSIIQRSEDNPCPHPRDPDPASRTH
Experimental: 2.2.2 Evaluation of the proteolytic activity inhibition in CF, COPD and ciliary diskenisia sputa. […] Sputa collection procedures were evaluated by the local ethic committee (comité d'Ethique Hospitalo-Facultaire des Cliniques universitaires Saint-Luc) and approved under the Belgian registration number B4032021000071.
Sputum proteolytic activity was assessed by following with a spectrophotometer the absorbance at 410 nm of suc-Ala-Ala-Pro-Val-pNA degradation, the chromogenic hNE substrate. Sputa were classified as mucoid, muco-purulent or purulent (Serisier et al., 2009, Respir Res, 10 (1): 63. doi: 10.1186/1465-9921-10-6). According to the experiment, 10 to 20 mg of sputum were weighted in a 96-well plate. ISVDs were then added to the sputum samples and pre-incubated at 37° C. during different periods of time. The hNE substrate was diluted to a concentration of 1 mM in a tris buffer (0.1M tris, 0.5M NaCl, 0.01% Sodium azide (NaN3), pH 7.5) and 50 μl of this solution were added to the wells. The substrate degradation was followed during 50 min. […] Slopes were then calculated from the regression line drawn from the absorbance measurements and were expressed as a percentage of the sputum proteolytic activity without ISVDs.

[3] = Spray-dried powder: concentration before/after centrifugation; type: physicochemical; details: spray-dried powder solubilized and dialysed; 10 000 g ten minutes
Experimental: Dry powders for inhalation were formulated with the NbE201 and the NbE201-PEG40. The spray dryer used was the PROCEPT's modular 4M8-Trix.
The integrity of the ISVD within the spray-dried powders was then evaluated after solubilizing the powders into water followed by a dialysis into phosphate buffer (50 mM, pH7). Protein concentration was measured by reading the absorbance at 280 nm before and after centrifugation at 10 000 g for ten minutes in order to detect the presence of insoluble aggregates.

B1: NbE201: anti-hNE ISVD (VHH/nanobody) from immunized lama, amino acid sequence SEQ ID NO: 4 (protein)
VHH: QVQLQESGGGLVQAGGSLRLSCVVPGRTISLYRMGWFRQAPGKEREFVAGINWSGDMTDYVDSVKGRFTISRDNAKNTVYLEMNSLKPEDTAIYYCTADPKLLPLADSSYGYWGQGTQVTVSS
loss of hNE inhibitory capacity after nebulization, agitation or F/T cycles (hNE): the greatest losses were observed with nebulization and 4 h of agitation | Initial concentration percentage before centrifugation ([1]; Agitation (1 h)): 93 ± 4% | Initial concentration percentage after centrifugation ([1]; Agitation (1 h)): 54 ± 12% (****) | Initial concentration percentage before centrifugation ([1]; Agitation (4 h)): 77 ± 6% (**) | Initial concentration percentage after centrifugation ([1]; Agitation (4 h)): 27 ± 19% (****) | Initial concentration percentage before centrifugation ([1]; Control): 100 ± 0% | Initial concentration percentage after centrifugation ([1]; Control): 100 ± 0% ^ | Initial concentration percentage before centrifugation ([1]; F/T 5x): 96 ± 8% | Initial concentration percentage after centrifugation ([1]; F/T 5x): 85 ± 10% (*) | Initial concentration percentage before centrifugation ([1]; F/T 10x): 103 ± 5% | Initial concentration percentage after centrifugation ([1]; F/T 10x): 75 ± 9% (**) | Initial concentration percentage before centrifugation ([1]; Nebulization): 73% ± 3% (***) | Initial concentration percentage after centrifugation ([1]; Nebulization): 31 ± 2% (****) | inhibition of proteolytic activity in sputum samples ex vivo ([2]; cystic fibrosis sputa): able to inhibit the proteolytic activity in sputum samples ex vivo | sputum inhibition capacity over time ([2]; exposure 0 to 24 h): a loss of inhibitory capacity over time was observed | concentration after centrifugation as % of concentration before centrifugation [3]: 53±3%

sputum proteolytic activity inhibition at time 0, compared with NbE201 ([2]; exposure time 0): No significant difference
B2: NbE201-PEG40: NbE201-Cter conjugated via C-terminal cysteine to branched 40 kDa PEG-maleimide (conjugate)
VHH: QVQLQESGGGLVQAGGSLRLSCVVPGRTISLYRMGWFRQAPGKEREFVAGINWSGDMTDYVDSVKGRFTISRDNAKNTVYLEMNSLKPEDTAIYYCTADPKLLPLADSSYGYWGQGTQVTVSSSPSTPPTPSPSTPPC
loss of hNE inhibitory capacity after nebulization, agitation or F/T cycles (hNE): did not display any significant loss of inhibitory activity | Initial concentration percentage before centrifugation ([1]; Agitation (1 h)): 99 ± 1% | Initial concentration percentage after centrifugation ([1]; Agitation (1 h)): 98 ± 1% | Initial concentration percentage before centrifugation ([1]; Agitation (4 h)): 98 ± 1% | Initial concentration percentage after centrifugation ([1]; Agitation (4 h)): 99 ± 1% | Initial concentration percentage before centrifugation ([1]; Control): 100 ± 0% | Initial concentration percentage after centrifugation ([1]; Control): 99 ± 1% | Initial concentration percentage before centrifugation ([1]; F/T 5x): 97 ± 2% | Initial concentration percentage after centrifugation ([1]; F/T 5x): 99 ± 1% | Initial concentration percentage before centrifugation ([1]; F/T 10x): 97 ± 2% | Initial concentration percentage after centrifugation ([1]; F/T 10x): 97 ± 3% | Initial concentration percentage before centrifugation ([1]; Nebulization): 88 ± 3% (****) | Initial concentration percentage after centrifugation ([1]; Nebulization): 88 ± 3% (****) | concentration after centrifugation as % of concentration before centrifugation [3]: 97±2%
